The values that follow come from publication PMC2628294.

The target in assay [1] is GlcNAc-containing IgG1-Fc (2) (human). The experiment in a line: SEC.
Assay [2] concerns the target soluble human FcγIIIa receptor (human) (UniProt P08637). The experiment in a line: SPR.
The target in assay [3] is PNGase F deglycosylated IgG1-Fc (human). The experiment in a line: SDS-PAGE under non-reducing conditions.
The target of assay [4] is yeast-expressed recombinant human IgG1-Fc (1) (human). The experiment in a line: SEC.
Assay [5] has the same target. The experiment in a line: SDS-PAGE under non-reducing conditions.

Sequence of UniProt P08637 (P08637 17-208): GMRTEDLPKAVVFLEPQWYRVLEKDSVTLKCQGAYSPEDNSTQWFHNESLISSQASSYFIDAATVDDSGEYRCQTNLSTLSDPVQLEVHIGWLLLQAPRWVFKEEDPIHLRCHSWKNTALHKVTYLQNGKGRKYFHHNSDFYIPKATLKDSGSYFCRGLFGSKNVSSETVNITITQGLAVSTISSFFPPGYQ

As for “GlcNAc-containing IgG1-Fc (2) (domain or fragment)”, the stoichiometry N in assay [1] was 2. This substance also came in with a fold less active in binding than the Fc glycoform (4) in assay [2] of over 17 fold.
Turning to “IgG1-Fc glycoform (4), Man3GlcNAc2-IgG1-Fc (domain or fragment)”, the fold more active in binding than the CHO-expressed IgG1-Fc in assay [2] stood at 2 fold.
For the substance “IgG1-Fc glycoform (6), Gal2Man3GlcNAc2-IgG1-Fc (domain or fragment)”, the fold more active in binding than the CHO-expressed IgG1-Fc in assay [2] worked out at 1.4 fold.
With “PNGase F deglycosylated IgG1-Fc (domain or fragment)”, in assay [3], the stoichiometry N is 2.
Take “yeast-expressed recombinant human IgG1-Fc (1) (domain or fragment)”: the stoichiometry N in assay [4] and in assay [5] was 2 in each case.
